For the assay, the target named is T1, biotinylated calmodulin (UniProt P0DP23 1-149, biotin (biotinylated; site not stated)).
T1 construct: calmodulin (CaM); experiments done 'essentially as described in [27]'; Held by its biotin on streptavidin sensors (BLI) or a biotin CAPture chip (SPR); also called CaM; biotinylated CaM
Briefly: BLI; biotinylated CaM immobilised on streptavidin sensors; eNOS 0, 10.9, 31.9, 43.7 and 87.5 nM as analyte; 180 s association, 180 s dissociation; 10 mM HEPES pH 7.4, 100 mM NaCl, 10% glycerol, 10 uM CaCl2, 0.05% surfactant P-20; 25°C; global single-state fit. To be noted: both partners purified. (In BLI a coated tip is dipped into the sample, and binding shifts an interference pattern.)

In general, koff refers to the rate constant with which the complex falls apart. A low value points to a long-lived complex.

B1: endothelial nitric oxide synthase phosphorylated by ERK (enzyme)
chain: MGNLKSVGQEPGPPCGLGLGLGLGLCGKQGPASPAPEPSRAPAPATPHAPDHSPAPNSPTLTRPPEGPKFPRVKNWELGSITYDTLCAQSQQDGPCTPRCCLGSLVLPRKLQTRPSPGPPPAEQLLSQARDFINQYYSSIKRSGSQAHEERLQEVEAEVASTGTYHLRESELVFGAKQAWRNAPRCVGRIQWGKLQVFDARDCSSAQEMFTYICNHIKYATNRGNLRSAITVFPQRAPGRGDFRIWNSQLVRYAGYRQQDGSVRGDPANVEITELCIQHGWTPGNGRFDVLPLLLQAPDEAPELFVLPPELVLEVPLEHPTLEWFAALGLRWYALPAVSNMLLEIGGLEFSAAPFSGWYMSTEIGTRNLCDPHRYNILEDVAVCMDLDTRTTSSLWKDKAAVEINLAVLHSFQLAKVTIVDHHAATVSFMKHLDNEQKARGGCPADWAWIVPPISGSLTPVFHQEMVNYILSPAFRYQPDPWKGSATKGAGITRKKTFKEVANAVKISASLMGTLMAKRVKATILYASETGRAQSYAQQLGRLFRKAFDPRVLCMDEYDVVSLEHEALVLVVTSTFGNGDPPENGESFAAALMEMSGPYNSSPRPEQHKSYKIRFNSVSCSDPLVSSWRRKRKESSNTDSAGALGTLRFCVFGLGSRAYPHFCAFARAVDTRLEELGGERLLQLGQGDELCGQEEAFRGWAKAAFQASCETFCVGEEAKAAAQDIFSPKRSWKRQRYRLSTQAEGLQLLPGLIHVHRRKMFQATVLSVENLQSSKSTRATILVRLDTAGQEGLQYQPGDHIGICPPNRPGLVEALLSRVEDPPPPTESVAVEQLEKGSPGGPPPSWVRDPRLPPCTLRQALTFFLDITSPPSPRLLRLLSTLAEEPSEQQELETLSQDPRRYEEWKWFRCPTLLEVLEQFPSVALPAPLLLTQLPLLQPRYYSVSSAPNAHPGEVHLTVAVLAYRTQDGLGPLHYGVCSTWLSQLKTGDPVPCFIRGAPSFRLPPDPYVPCILVGPGTGIAPFRGFWQERLHDIESKGLQPAPMTLVFGCRCSQLDHLYRDEVQDAQERGVFGRVLTAFSREPDSPKTYVQDILRTELAAEVHRVLCLERGHMFVCGDVTMATSVLQTVQRILATEGDMELDEAGDVIGVLRDQQRYHEDIFGLTLRTQEVTSRIRTQSFSLQERHLRGAVPWAFDPPGPDTPGP
modifications: phosphothreonine at 46, phosphoserine at 58, phosphoserine at 602 (by ERK in vitro; 2-3 phosphates per monomer; phosphorylation incomplete, at least 75%)
notes: endothelial nitric oxide synthase (eNOS); the residue numbers used (Thr46, Ser58, Ser602; Ser602 = human Ser600) are those of bovine eNOS; Same protein as m2 after the ERK kinase reaction (20 mM Hepes pH 7.4, 1 mM DTT, 10 mM MgCl2, 1 mM ATP, 10% glycerol, room temperature); also called ERK phosphorylated eNOS; phosphorylated eNOS
In the case of B1, the off-rate constant (koff) turned out to be 0.00033 s⁻¹.

These data come from publication PMC4166121, “Endothelial nitric oxide synthase is regulated by ERK phosphorylation at Ser^602” (Bioscience Reports, 2014).
